Results taken from patent US20220160891A1 (Johns Hopkins, published 2022).
Where two headings read alike, the source gives them in different places.

B1: recombinant F5111 antibody (human IgG1 lambda) (antibody, V domains shown)
VH: QLQLQESGPGLVKPSQTLSLTCTVSGGSISSGGYYWSWIRQHPGKGLEWIGYIYYSGSTYYNPSLKSRVTISVDTSKNQFSLKLSSVTAADTAVYYCARTPTVTGDWFDPWGRGTLVTVSS
VL: NFMLTQPHSVSESPGKTVTISCTRSSGSIASNYVQWYQQRPGSSPTTVIYEDNQRPSGVPDRFSGSIDSSSNSASLTISGLKTEDEADYYCQSYDSSNVVFGGGTKLTVLG
notes: also called F5111 Ab; monoclonal antibody F5111

Legend:
[1] = target: biotinylated human IL-2Ralpha extracellular domain (residues 1-214) (human) (UniProt P01589); assay: bio-layer interferometry equilibrium titration on immobilized hIL-2Rα, response MW normalized
[2] = target: T1, yeast surface-displayed human IL-2 (residues 1-133) (human, UniProt P60568 21-153); assay: yeast surface titration on hIL-2-displaying yeast, flow cytometry, normalized MFI
T1 construct: also called hIL-2; not shown: yeast display anchor encoded by the pCT302 vector
Method: (§1) Yeast surface binding studies. […] Cells were then washed and stained with a 1:200 dilution of Alexa647-conjugated streptavidin (Thermo) in PBSA for 15 minutes at 4° C. After a final wash, cells were analyzed for antibody binding using a CytoFLEX flow cytometer (Beckman Coulter). Background-subtracted and normalized binding curves were fitted to a first-order binding model and equilibrium dissociation constant (KD) values were determined using GraphPad Prism.
(§2) A rapid small-scale HEK 293F cell transfection assay was developed to optimize immunocytokine expression. […] After a 3-day incubation, secreted protein was captured from the supernatant with protein G resin, eluted with 0.1 M glycine pH 2.0, and analyzed via SDS-PAGE. […] Immunocytokine expression was scaled up in HEK 293F cells and the secreted protein was purified via protein G affinity chromatography followed by size-exclusion chromatography.

[3] = target: T2, yeast surface-displayed mouse IL-2 (residues 1-149) (mouse, UniProt P04351 21-169); assay: yeast surface titration on mIL-2-displaying yeast, flow cytometry, normalized MFI
T2 construct: range 1-149; also called mIL-2; not shown: yeast display anchor encoded by the pCT302 vector
T2 sequence (looked up): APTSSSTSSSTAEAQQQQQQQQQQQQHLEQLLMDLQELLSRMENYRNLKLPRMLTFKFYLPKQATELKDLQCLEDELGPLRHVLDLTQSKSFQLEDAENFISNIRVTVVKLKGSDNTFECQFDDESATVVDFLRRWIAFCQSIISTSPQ

[4] = target: T1, yeast surface-displayed human IL-2 …; assay: yeast surface display titration of soluble antibody, flow cytometry; apparent bivalent affinity
Method: as §1, §2

[5] = target: T1, yeast surface-displayed human IL-2 …; assay: yeast surface titration on hIL-2-displaying yeast, flow cytometry, normalized MFI; remark: listed apart in the source
Method: as §1

[6] = target: T3, biotinylated human IL-2 immobilized on streptavidin-coated tips (human, UniProt P60568 21-153, biotinylated (site not stated)); assay: bio-layer interferometry equilibrium titration on immobilized hIL-2, response MW normalized
T3 construct: also called biotinylated hIL-2; immobilized hIL-2; not shown: tags and biotinylation site of the biotinylated hIL-2 construct are not described (the BAP tag is described only for hIL)
Method: (§3) Bio-layer interferometry binding studies. […] Less than 5 signal units (nm) of receptor was immobilized to minimize mass transfer effects. […] An irrelevant protein was included in a reference well to subtract non-specific binding. Surface regeneration for all interactions was conducted using a 15 second exposure to 0.1 M glycine pH 3.0. Experiments were carried out in PBSA (phosphate-buffered saline, pH 7.3 plus 0.1% bovine serum albumin (BSA, Thermo Fisher Scientific)) at 25° C. Data was visualized and processed using the Octet® Data Analysis software version 7.1 (Molecular Devices). Equilibrium titration curve fitting and KD value determination was implemented using GraphPad Prism, assuming all binding interactions to be first order.

[7] = target: T3, biotinylated human IL-2 immobilized on …; assay: as above; remark: listed apart in the source
Method: as §3

T1 sequence (P60568 21-153): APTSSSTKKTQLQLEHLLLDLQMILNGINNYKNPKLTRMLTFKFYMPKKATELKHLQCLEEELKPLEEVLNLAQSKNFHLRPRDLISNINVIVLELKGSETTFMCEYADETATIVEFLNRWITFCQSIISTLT
T3 sequence (P60568 21-153): as above

| Molecule | EC50 (read off the curve) [1] [nM] | Kd [2] [nM] | binding result [3] | Kd [4] [nM] | EC50 (read off the curve) [5] [nM] | EC50 (read off the curve) [6] [nM] | EC50 (read off the curve) [7] [nM] |
| --- | --- | --- | --- | --- | --- | --- | --- |
| human IL-2 cytokine (residues 1-133), soluble, C-terminal hexahistidine tag (from UniProt P60568 21-153) (ligand) | 5 |  |  |  |  |  |  |
| hIL-2/F5111 complex (from UniProt P60568 21-153) | 8 |  |  |  |  |  |  |
| B1 |  | 0.42 | no binding (tested: about 1e-7 M) | 0.43 | ~0.08 | ~0.6 | ~3 |
